Series [1] concerns VpsT (Vibrio cholerae C7258?). As to the kind of experiment: EMSA. (In general: A gel shift assay detects complexes by their altered migration in electrophoresis.)
For series [2], the system named is H-NS (Vibrio cholerae C7258?). As to the kind of experiment: EMSA.

For orientation: Kd means the constant that tells how readily two partners part at equilibrium. A lower Kd goes with higher affinity. For the substance vpsA promoter -223 to -139, the Kd in series [1] came to 42.6 nM; in series [2] it was 138 nM.
On the same counts, the results for vpsL promoter -262 to -185 are 35.4 nM and 204 nM.

The values are drawn from paper PMC4617317.
